According to patent US20190016816A1 (APTEVO RESEARCH AND DEVELOPMENT, published 2019):

How the values were obtained:
human CD137 on cells = human CD137 on cells (human, UniProt Q07011 24-255); experiment: cell-based or functional assay
[1] = biological target: T1, recombinant human 5T4 extracellular domain (ECD) (human); experiment: SPR (Biacore T200, 25 C), bispecific captured on anti-human IgG, monomeric ECD injected, 1:1 fit
T1 construct: Monomeric, made in HEK-293; also called Hu 5T4; monomeric 5T4 ectodomain
T1 chain: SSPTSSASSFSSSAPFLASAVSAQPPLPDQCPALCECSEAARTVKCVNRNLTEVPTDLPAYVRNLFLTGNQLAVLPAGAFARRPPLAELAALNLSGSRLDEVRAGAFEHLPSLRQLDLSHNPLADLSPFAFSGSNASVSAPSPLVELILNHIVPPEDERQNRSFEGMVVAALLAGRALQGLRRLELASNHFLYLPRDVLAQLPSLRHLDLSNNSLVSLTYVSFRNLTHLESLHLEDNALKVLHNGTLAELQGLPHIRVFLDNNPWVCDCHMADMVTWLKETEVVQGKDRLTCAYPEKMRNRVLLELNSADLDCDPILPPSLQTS
Procedure: (§1) Goat anti-human IgG F(ab′)2 fragment (Jackson ImmunoResearch) at 20 μg/mL in 10 mM sodium acetate (pH 4.5) was immobilized at a density of 2000 response units (RU) onto the flow cell of a CM5 research-grade sensor chip (GE) by standard amine coupling chemistry. Each bispecific variant at 200 nM in HBS-EP+ buffer was captured in the flow cell with the immobilized anti-human IgG at a flow rate of 50 μL/min for 60 sec to reach ˜500 RU response, leaving one flow cell surface unmodified as the reference. Following a 30 sec stabilization period, four different concentrations of each ECD (0, 20, 60, and 180 nM) were injected at 50 μL/min for either 120 sec followed by a 240 sec dissociation period (for 5T4) or 90 sec followed by a 180 sec dissociation period (for 4-1BB). Regeneration was achieved by duplicate injections of 10 mM glycine (pH 1.5) at a flow rate of 50 μL/min for 30 sec followed by HBS-EP+ buffer stabilization for 1 min.
(§2) Sensorgrams obtained from kinetic SPR measurements were analyzed by the double subtraction method. The signal from the reference flow cell was subtracted from the analyte binding response obtained from flow cells with immobilized or captured ligands. Buffer reference responses were then averaged from multiple injections. The averaged buffer reference responses were then subtracted from analyte binding responses, and the final double-referenced data were analyzed with Biacore T200 Evaluation software (2.0, GE), globally fitting data to derive kinetic parameters. All sensorgrams were fitted using a simple one-to-one binding model.

[2] = biological target: T2, recombinant human CD137 extracellular domain (ECD) (human); experiment: as above
T2 construct: Monomeric, made in HEK-293; also called Hu CD137; human 4-1BB ECD
Procedure: as §1, §2

cynomolgus 5T4 on cells = biological target: T3, cynomolgus 5T4 on cells (cynomolgus macaque, UniProt Q4R8Y9 35-420); experiment: flow cytometry, CHO-K1/cynomolgus 5T4 transfectants, labelled anti-human IgG secondary, MFI (mean)
T3 construct: whole, on cells; also called CHO-K1/cynomolgus 5T4 transfectants
T3 sequence (looked up): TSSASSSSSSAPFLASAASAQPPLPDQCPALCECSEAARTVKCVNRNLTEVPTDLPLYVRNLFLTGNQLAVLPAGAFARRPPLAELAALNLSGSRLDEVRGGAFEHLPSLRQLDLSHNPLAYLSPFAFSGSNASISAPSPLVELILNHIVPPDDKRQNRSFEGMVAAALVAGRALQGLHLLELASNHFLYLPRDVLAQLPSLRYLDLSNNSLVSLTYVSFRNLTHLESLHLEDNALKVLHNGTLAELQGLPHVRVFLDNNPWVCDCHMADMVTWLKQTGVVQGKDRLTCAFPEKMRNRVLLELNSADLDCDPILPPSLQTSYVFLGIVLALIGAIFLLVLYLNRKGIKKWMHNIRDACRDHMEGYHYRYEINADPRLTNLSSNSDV
Procedure: Binding studies were performed by standard flow cytometry-based staining procedures two cell lines expressing 5T4:CHO-K1 cells (obtained from Alligator) transduced with human or cynomolgus macaque 5T4 and SKOV-3 human ovarian adenocarcinoma cells which express (human) 5T4. All labeling and washes were performed in U-bottom 96-well plates in saline buffer with 0.1% BSA and 2 mM EDTA. Cell were plated at approximately 100,000 cells per well and incubated with a range of 100 nM to 0.05 nM concentrations of test molecules in […], for 30 minutes on ice. Cells were washed three times then incubated for another 30 min on ice with fluorescently-labeled secondary polyclonal antibody, F(ab′)² goat anti-human IgG (Jackson ImmunoResearch Laboratories). The cells were then washed twice and the samples acquired in a BD LSRII or a Symphony A3 flow cytometer. The sample files were analyzed using FlowJo software; the mean fluorescence intensity (MFI-mean) or median fluorescence intensity (MFI-median) of the live population of cells in each well was calculated after gating on live cells (forward vs side scatter). Nonlinear regression analysis to determine EC₅₀ values was performed in GraphPad Prism 6® graphing and statistics software.

human 5T4 on cells = biological target: T4, human 5T4 on cells (human, UniProt Q13641 32-420); experiment: flow cytometry, murine CT26 cells expressing human 5T4, labelled anti-human IgG secondary, MFI (mean)
T4 construct: also called TPBG; hu5T4
T4 sequence: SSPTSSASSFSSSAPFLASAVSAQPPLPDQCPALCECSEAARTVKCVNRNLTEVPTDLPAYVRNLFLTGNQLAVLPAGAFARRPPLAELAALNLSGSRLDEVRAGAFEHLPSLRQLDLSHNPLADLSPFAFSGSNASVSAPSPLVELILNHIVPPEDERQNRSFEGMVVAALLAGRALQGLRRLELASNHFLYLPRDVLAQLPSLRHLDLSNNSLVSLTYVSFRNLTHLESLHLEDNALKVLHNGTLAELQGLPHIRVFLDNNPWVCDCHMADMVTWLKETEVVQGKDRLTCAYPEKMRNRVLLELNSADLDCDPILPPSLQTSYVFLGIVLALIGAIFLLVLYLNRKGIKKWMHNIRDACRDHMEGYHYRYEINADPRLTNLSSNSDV

T2 sequence (chain, as listed by the source limits assumed): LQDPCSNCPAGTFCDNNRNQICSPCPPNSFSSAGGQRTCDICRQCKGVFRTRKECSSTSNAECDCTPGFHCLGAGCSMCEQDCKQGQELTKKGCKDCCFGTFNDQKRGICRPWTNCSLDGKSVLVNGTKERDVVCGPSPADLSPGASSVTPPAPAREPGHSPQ
Chain of human CD137 on cells (Q07011 24-255 limits assumed): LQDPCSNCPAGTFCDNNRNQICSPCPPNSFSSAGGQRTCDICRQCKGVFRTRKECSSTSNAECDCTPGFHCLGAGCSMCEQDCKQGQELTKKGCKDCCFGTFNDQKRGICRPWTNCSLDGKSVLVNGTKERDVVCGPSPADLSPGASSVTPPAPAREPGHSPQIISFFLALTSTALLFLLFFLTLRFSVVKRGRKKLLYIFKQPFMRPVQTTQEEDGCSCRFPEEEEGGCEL

B1: ALG.APV-187 (bispecific antibody)
chain: EVQLLESGGGLVQPGGSLRLSCAASGFTFSHGSMYWVRQAPGKGLEWVSSISSGSGSTYYADSVKGRFTISHDNSKNTLYLQMNSLRAEDTAVYYCARSSYYGSYYSIDYWGQGTLVTVSSGGGGSGGGGSGGGGSGGGGSDIQMTQSPSSLSASVGDRVTITCRASQSISSYLNWYQQKPGKAPKLLIYAASSLQSGVPSRFSGSGSGTDFTLTISSLQPEDFATYYCQQYYDNLPTFGQGTKLEIKSSEPKSSDKTHTCPPCPAPEAAGAPSVFLFPPKPKDTLMISRTPEVTCVVVDVSHEDPEVKFNWYVDGVEVHNAKTKPREEQYNSTYRVVSVLTVLHQDWLNGKEYKCAVSNKALPAPIEKTISKAKGQPREPQVYTLPPSRDELTKNQVSLTCLVKGFYPSDIAVEWESNGQPENNYKTTPPVLDSDGSFFLYSKLTVDKSRWQQGNVFSCSVMHEALHNHYTQKSLSLSPGSGGGGSGGGGSGGGGSPSEVQLLESGGGLVQPGGSLRLSCAASGFTFSSYAMSWVRQAPGKCLEWVSAISGSGGSTYYADSVKGRFTISRDNSKNTLYLQMNSLRAEDTAVYYCARYYGGYYSAWMDYWGQGTLVTVSSGGGGSGGGGSGGGGSGGGGSDIQMTQSPSSLSASVGDRVTITCRASQSISSFLNWYQQKPGKAPKLLIYAASSLQSGVPSRFSGSGSGTDFTLTISSLQPEDSATYYCQQTYGYLHTFGCGTKLEIKR
notes: Optimized ADAPTIR scFv-Fc-scFv homodimer with stabilizing disulfide in the 1210 scFv
- CD137 reporter assay with HCC1143 cells, EC50 against ALG.APV-004 (human CD137 on cells): 10 fold lower EC50
- CD137 reporter assay with HCC1143 cells, EC50 against ALG.APV-006 and ALG.APV-004 (human CD137 on cells): ≤ 6 fold lower EC50
- Kd [1]: 35 nM
- koff [1]: 0.00072 s⁻¹
- kon [1]: 21000 M⁻¹ s⁻¹
- Kd [2]: 73 nM
- koff [2]: 0.027 s⁻¹
- kon [2]: 370000 M⁻¹ s⁻¹
- EC50 (cynomolgus 5T4 on cells): 8.5 nM
- Maximum MFI (cynomolgus 5T4 on cells): 26000
- EC50 (human 5T4 on cells): 2.2 nM
- Maximum MFI (human 5T4 on cells): 1730

B2: ALG.APV-210 (bispecific antibody)
chain: EVQLLESGGGLVQPGGSLRLSCAASGFTFSHGSMYWVRQAPGKGLEWVSSISSGSGSTYYADSVKGRFTISHDNSKNTLYLQMNSLRAEDTAVYYCARSSYYGSYYSIDYWGQGTLVTVSSGGGGSGGGGSGGGGSGGGGSDIQMTQSPSSLSASVGDRVTITCRASQSISSYLNWYQQKPGKAPKLLIYAASSLQSGVPSRFSGSGSGTDFTLTISSLQPEDFATYYCQQYYDNLPTFGQGTKLEIKEPKSSDKTHTCPPCPAPEAAGAPSVFLFPPKPKDTLMISRTPEVTCVVVDVSHEDPEVKFNWYVDGVEVHNAKTKPREEQYNSTYRVVSVLTVLHQDWLNGKEYKCAVSNKALPAPIEKTISKAKGQPREPQVYTLPPSRDELTKNQVSLTCLVKGFYPSDIAVEWESNGQPENNYKTTPPVLDSDGSFFLYSKLTVDKSRWQQGNVFSCSVMHEALHNHYTQKSLSLSPGSGGGGSGGGGSGGGGSPSEVQLLESGGGLVQPGGSLRLSCAASGFTFSSYAMSWVRQAPGKCLEWVSAISGSGGSTYYADSVKGRFTISRDNSKNTLYLQMNSLRAEDTAVYYCARYYGGYYSAWMDYWGQGTLVTVSSGGGGSGGGGSGGGGSGGGGSDIQMTQSPSSLSASVGDRVTITCRASQSISSFLNWYQQKPGKAPKLLIYAASSLQSGVPSRFSGSGSGTDFTLTISSLQPEDSATYYCQQTYGYLHTFGCGTKLEIKR
notes: Optimized ADAPTIR scFv-Fc-scFv homodimer with stabilizing disulfide in the 1210 scFv; also called 5T4-CD137 bispecific antibody
- CD137 reporter assay with HCC1143 cells, EC50 against ALG.APV-004 (human CD137 on cells): 10 fold lower EC50
- Kd [1]: 79 nM
- koff [1]: 0.0012 s⁻¹
- kon [1]: 15000 M⁻¹ s⁻¹
- Kd [2]: 59 nM
- koff [2]: 0.033 s⁻¹
- kon [2]: 550000 M⁻¹ s⁻¹
- EC50 (cynomolgus 5T4 on cells): 7.2 nM
- Maximum MFI (cynomolgus 5T4 on cells): 23800
- EC50 (human 5T4 on cells): 2.7 nM
- Maximum MFI (human 5T4 on cells): 1730
